# Read-outs that look alike come from different tables or passages of the source.
# How the values were obtained:
# [1] = molecular target: GST-Rpl22 (UniProt P67984 1-128); assay: EMSA; 5 mM MgCl2, E. coli tRNA competitor; 37.5 mM HEPES pH 7.9, 75 mM NaCl, 5 mM MgCl2, 0.1 mg/ml BSA, 8% glycerol, 1 ug E. coli tRNA, 5 nM 32P-RNA; temperature not stated; conditions: protein: recombinant; tags: GST; label: 5'-32P
# [2] = molecular target: GST-Rpl22 (UniProt P67984 1-128); assay: as above
binder,measurement,setting,value
GGUCCGUCCCGGGUACAAGUCCCGGGUGGUGA (structured_RNA) [EBER1],binding result,[1],binds
ACCAGAGUGAUGAUAUUGUGAGGGGAGACCCA (ssRNA) [Alox12 NBS],binding result,[2],no binding
AUCCUGCUGGAUGGAAUUCCAGCUAAUGUGAU (structured_RNA) [Alox12 BS1],binding result,[2],no binding
AUUUCCUCACCAUGUGUGUUUUCACAUGCACU (structured_RNA) [Alox12 BS2],binding result,[2],binds
GCUCAGUGCGGUGCUACCGACCCGAGGUCAAG (ssRNA) [EBER2],binding result,[1],no binding

# From article PMC12820725, “Ribosomal protein control of hematopoietic stem cell transformation through regulation of metabolism”
